What follows are sequences tested on Escherichia coli TOP10 (assay: shrunken log2 fold change of peptide-encoding DNA abundance (4.5 h post-induction vs induction); higher = less antimicrobial activity (less host growth inhibition)). Conditions: time post-induction: 4.5 h; library: site-saturation at positions 5, 18, 19, 20.
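Also: peptides expressed intracellularly from a pBAD plasmid library in pooled LB shake-flask culture, induced with 0.3% L-arabinose, DNA abundance read by NGS, three biological replicates, DESeq2 with apeglm shrinkage.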

Row | Sequence | shrunken log2 fold change
1 | RRIRERPPRLPRPRPRPPCQPRP | 0.0382
2 | RRIRERPPRLPRPRPRPPDPPRP | 0.106
3 | RRIRERPPRLPRPRPRPPDQPRP | 0.155
4 | RRIRERPPRLPRPRPRPPDYPRP | -0.202
5 | RRIRERPPRLPRPRPRPPEKPRP | -0.0038
6 | RRIRERPPRLPRPRPRPPFAPRP | 0.403
7 | RRIRERPPRLPRPRPRPPFHPRP | -0.139
8 | RRIRERPPRLPRPRPRPPFLPRP | -0.075
9 | RRIRERPPRLPRPRPRPPGIPRP | -0.0106
10 | RRIRERPPRLPRPRPRPPGNPRP | 0.106
11 | RRIRERPPRLPRPRPRPPHAPRP | 0.229
12 | RRIRERPPRLPRPRPRPPHFPRP | 0.568
13 | RRIRERPPRLPRPRPRPPIMPRP | -0.314
14 | RRIRERPPRLPRPRPRPPIRPRP | -0.0192
15 | RRIRERPPRLPRPRPRPPKDPRP | 0.00712
16 | RRIRERPPRLPRPRPRPPLDPRP | 0.0357
17 | RRIRERPPRLPRPRPRPPLNPRP | -0.192
18 | RRIRERPPRLPRPRPRPPMDPRP | -0.214
19 | RRIRERPPRLPRPRPRPPMWPRP | 0.245
20 | RRIRERPPRLPRPRPRPPNNPRP | -0.186
21 | RRIRERPPRLPRPRPRPPNYPRP | -0.201
22 | RRIRERPPRLPRPRPRPPPWPRP | 0.318

Row | Sequence | shrunken log2 fold change
23 | RRIRERPPRLPRPRPRPPQGPRP | 0.158
24 | RRIRERPPRLPRPRPRPPQLPRP | 0.194
25 | RRIRERPPRLPRPRPRPPQQPRP | 0.00573
26 | RRIRERPPRLPRPRPRPPRSPRP | 0.375
27 | RRIRERPPRLPRPRPRPPSGPRP | 0.275
28 | RRIRERPPRLPRPRPRPPVVPRP | -0.0806
29 | RRIRERPPRLPRPRPRPPYDPRP | -1.12
30 | RRIRERPPRLPRPRPRPPYLPRP | -0.0371
31 | RRIRERPPRLPRPRPRPPYQPRP | -0.1
32 | RRIRERPPRLPRPRPRPQAIPRP | -0.0062
33 | RRIRERPPRLPRPRPRPQCIPRP | 0.0341
34 | RRIRERPPRLPRPRPRPQCVPRP | -0.0437
35 | RRIRERPPRLPRPRPRPQENPRP | -0.164
36 | RRIRERPPRLPRPRPRPQFNPRP | -0.167
37 | RRIRERPPRLPRPRPRPQFWPRP | 0.172
38 | RRIRERPPRLPRPRPRPQGDPRP | -0.0405
39 | RRIRERPPRLPRPRPRPQGGPRP | -0.0586
40 | RRIRERPPRLPRPRPRPQHFPRP | 0.131
41 | RRIRERPPRLPRPRPRPQHLPRP | 0.0167
42 | RRIRERPPRLPRPRPRPQHYPRP | -0.398
43 | RRIRERPPRLPRPRPRPQIFPRP | -0.0392
44 | RRIRERPPRLPRPRPRPQKIPRP | -0.12

Row | Sequence | shrunken log2 fold change
45 | RRIRERPPRLPRPRPRPQLFPRP | 0.0984
46 | RRIRERPPRLPRPRPRPQLTPRP | -0.576
47 | RRIRERPPRLPRPRPRPQMLPRP | -0.0206
48 | RRIRERPPRLPRPRPRPQMMPRP | -0.0543
49 | RRIRERPPRLPRPRPRPQPNPRP | -0.084
50 | RRIRERPPRLPRPRPRPQRAPRP | 0.254
51 | RRIRERPPRLPRPRPRPQSEPRP | -0.000579
52 | RRIRERPPRLPRPRPRPQSFPRP | -0.0705
53 | RRIRERPPRLPRPRPRPQSTPRP | -0.319
54 | RRIRERPPRLPRPRPRPQWHPRP | -0.479
55 | RRIRERPPRLPRPRPRPQWKPRP | -0.0957
56 | RRIRERPPRLPRPRPRPQWMPRP | 0.0273
57 | RRIRERPPRLPRPRPRPQWPPRP | -0.0675
58 | RRIRERPPRLPRPRPRPQYIPRP | -0.219
59 | RRIRERPPRLPRPRPRPRAMPRP | 0.0549
60 | RRIRERPPRLPRPRPRPRDEPRP | 0.307
61 | RRIRERPPRLPRPRPRPRDPPRP | 0.0576
62 | RRIRERPPRLPRPRPRPRFLPRP | -0.18
63 | RRIRERPPRLPRPRPRPRFQPRP | 0.2
64 | RRIRERPPRLPRPRPRPRKDPRP | -0.245
65 | RRIRERPPRLPRPRPRPRKWPRP | 0.316
66 | RRIRERPPRLPRPRPRPRMLPRP | -0.0942

Row | Sequence | shrunken log2 fold change
67 | RRIRERPPRLPRPRPRPRPDPRP | 0.205
68 | RRIRERPPRLPRPRPRPRQWPRP | -0.0536
69 | RRIRERPPRLPRPRPRPRRCPRP | 0.0702
70 | RRIRERPPRLPRPRPRPRSKPRP | 0.00172
71 | RRIRERPPRLPRPRPRPRVVPRP | 0.069
72 | RRIRERPPRLPRPRPRPRWMPRP | 0.0378
73 | RRIRERPPRLPRPRPRPRYAPRP | -0.118
74 | RRIRERPPRLPRPRPRPSAPPRP | 0.18
75 | RRIRERPPRLPRPRPRPSESPRP | -0.577
76 | RRIRERPPRLPRPRPRPSFDPRP | -0.417
77 | RRIRERPPRLPRPRPRPSFEPRP | -0.132
78 | RRIRERPPRLPRPRPRPSFYPRP | -0.308
79 | RRIRERPPRLPRPRPRPSGHPRP | -0.289
80 | RRIRERPPRLPRPRPRPSGQPRP | -0.148
81 | RRIRERPPRLPRPRPRPSIDPRP | -0.0545
82 | RRIRERPPRLPRPRPRPSIFPRP | -0.343
83 | RRIRERPPRLPRPRPRPSIGPRP | -0.406
84 | RRIRERPPRLPRPRPRPSKEPRP | -0.0565
85 | RRIRERPPRLPRPRPRPSKIPRP | -0.506
86 | RRIRERPPRLPRPRPRPSKYPRP | -1.02
87 | RRIRERPPRLPRPRPRPSLHPRP | -0.309
88 | RRIRERPPRLPRPRPRPSLVPRP | -0.0847

Row | Sequence | shrunken log2 fold change
89 | RRIRERPPRLPRPRPRPSMDPRP | -0.355
90 | RRIRERPPRLPRPRPRPSMRPRP | 0.353
91 | RRIRERPPRLPRPRPRPSNDPRP | -0.247
92 | RRIRERPPRLPRPRPRPSPEPRP | 0.0512
93 | RRIRERPPRLPRPRPRPSQGPRP | -0.153
94 | RRIRERPPRLPRPRPRPSQMPRP | 0.0681
95 | RRIRERPPRLPRPRPRPSRCPRP | 0.0232
96 | RRIRERPPRLPRPRPRPSRHPRP | -0.439
97 | RRIRERPPRLPRPRPRPSSIPRP | -0.855
98 | RRIRERPPRLPRPRPRPSSQPRP | 0.123
99 | RRIRERPPRLPRPRPRPSTCPRP | -0.324
100 | RRIRERPPRLPRPRPRPSTWPRP | -0.651
101 | RRIRERPPRLPRPRPRPSVSPRP | -0.335
102 | RRIRERPPRLPRPRPRPTAFPRP | -0.16
103 | RRIRERPPRLPRPRPRPTCAPRP | -0.162
104 | RRIRERPPRLPRPRPRPTECPRP | -0.00173
105 | RRIRERPPRLPRPRPRPTFVPRP | 0.0579
106 | RRIRERPPRLPRPRPRPTGPPRP | 0.353
107 | RRIRERPPRLPRPRPRPTHGPRP | 0.0992
108 | RRIRERPPRLPRPRPRPTIGPRP | -0.323
109 | RRIRERPPRLPRPRPRPTIKPRP | -0.178

From the supplement of paper PMC9112550, “Optimization of the antimicrobial peptide Bac7 by deep mutational scanning” (BMC Biology, 2022)
